Molecular target: pooled human IgG

| Protein | Enzyme Activity Endpoint Assay: Fab′2 [ng/µL] | Enzyme Activity Endpoint Assay: Fc [ng/µL] | Enzyme Activity Endpoint Assay: IgG [ng/µL] | Enzyme Activity Endpoint Assay: scIgG [ng/µL] |
| --- | --- | --- | --- | --- |
| PRT-30 (protein) MANQEIRYSEVTPYHVTSVWTKGVTPPANFTQGEDVFHAPYVANQGWYDITKTFNGKDDLLCGAATAGNMLHWWFDQNKDQIKRYLEEHPEKQKINFNGEQMFDVKEAIDTKNHQLDSKLFEYFKEKAFPYLSTKHLGVFPDHVLDMFINGYRLSLTNHGPTPVKEGSKDPRGGIFDAVFTRGDQSKLLTSRHDFKEKTLKEISDLIKKELTEGKALGLSHTYANVRINHVINLWGADFDSEGNLKAIYVTDSDSNASIGMKKYFVGVNSAGKVAISAKEIKEDNIGAQVLGLFTLSTGQDSWNQTN | 3 | 73 | 21 | 65 |
| PRT-33 (protein) MANQEIRYSEVTPYHVTSVWTKGVTPPANFTQGEDVFHAPYVANQGWYDITKTFNGKDDLLCGAATAGNMLHWWFDQNKDQIKRYLKEHPEKQKINFNGEQMFDVKEAIDTKNHQLDSKLFEYFKEKAFPYLSTKHLGVFPDHVIDMFINGYRLSLTNHGPTPVKEGSKDPRGGIFDAVFTRGDQSKLLTSRHDFKEKNLKEISDLIKKELTEGKALGLSHTYANVRINHVINLWGADFDSNGNLKAIYVTDSDSNASIGMKKYFVGVNSAGKVAISAKEIKEDNIGAQVLGLFTLSTGQDSWNQTN | 26 | 93 | 17 | 44 |
| PRT-31 (protein) MANQEIRYSEVTPYHVTSVWTKGVTPPANFTQGEDVFHAPYVANQGWYDITKTFNGKDDLLCGAATAGNMLHWWFDQNKDQIERYLEEHPEKQKINFNGEQMFDVKEAIDTKNHQLDSKLFEYFKEKAFPYLSTKHLGVFPDHVIDMFINGYRLSLTNHGPTPVKEGSKDPRGGIFDAVFTRGDQSKLLTSRHDFKEKNLKEISDLIKKELTEGKALGLSHTYANVRINHVINLWGADFDSNGNLKAIYVTDSDSNASIGMKKYFVGVNSAGKVAISAKEIKEDNIGAQVLGLFTLSTGQDSWNQTN | 46 | 126 | 13 | 15 |
| PRT-1 (protein) MANQEIRYSEVTPYHVTSVWTKGVTPPANFTQGEDVFHAPYVANQGWYDITKTFNGKDDLLCGAATAGNMLHWWFDQNKDQIKRYLEEHPEKQKINFNGEQMFDVKEAIDTKNHQLDSKLFEYFKEKAFPYLSTKHLGVFPDHVIDMFINGYRLSLTNHGPTPVKEGSKDPRGGIFDAVFTRGDQSKLLTSRHDFKEKNLKEISDLIKKELTEGKALGLSHTYANVRINHVINLWGADFDSNGNLKAIYVTDSDSNASIGMKKYFVGVNSAGKVAISAKEIKEDNIGAQVLGLFTLSTGQDSWNQTN | 44 | 100 | 23 | 21 |
| PRT-35 (protein) MANQEIRYSEVTPYHVTSVWTKGVTPPANFTQGEDVFHAPYVANQGWYDITKTFNGKDDLLCGAATAGNMLHWWFDQNKDQIKRYLEEHPEKQKINFNGEQMFDVKEAIDTKDHQLDSKLFEYFKEKAFPYLSTKHLGVFPDHVIDMFINGYRLSLTNHGPTPVKEGSKDPRGGIFDAVFTRGDQSKLLTSRHDFKEKNLKEISDLIKKELTEGKALGLSHTYANVRINHVINLWGADFDSNGNLKAIYVTDSDSNASIGMKKYFVGVNSAGKVAISAKEIKEDNIGAQVLGLFTLSTGQDSWNQTN | 37 | 104 | 9 | 14 |
| PRT-32 (protein) MANQEIRYSEVTPYHVTSVWTKGVTPPANFTQGEDVFHAPYVANQGWYDITKTFNGKDDLLCGAATAGNMLHWWFDQNKDQIKRYLEEHPEKQKINFNGEQMFDVKEAIDTKNHQLDSKLFEYFKEKAFPYLSTKHLGVFPDHVIDMFINGYRLSLTNHGPTPVKEGSKDPRGGIFDAVFTRGDQSKLLTSRHDFKEKNLKEISDLIKKELTEGKALGLSHTYANVRINHVINLWGADFDSNGNLKAIYVTDSDSNASIGMKKYFVGVNSAGKVAISAKEIKEDNIGAQVLGLFTLSTGQDIWNQTN | 48 | 124 | 14 | 17 |
| PRT-36 (protein) MANQEIRYSEVTPYHVTSVWTKGVTPPANFTQGEDVFHAPYVANQGWYDITKTFNGKDDLLCGAATAGNMLHWWFDQNKDQIKRYLEEHPEKQKINFNGEQMFDVKEAIDTKNHQTDSKLFEYFKEKAFPYLSTKHLGVFPDHVIDMFINGYRLSLTNHGPTPVKEGSKDPRGGIFDAVFTRGDQSKLLTSRHDFKEKNLKEISDLIKKELTEGKALGLSHTYANVRINHVINLWGADFDSNGNLKAIYVTDSDSNASIGMKKYFVGVNSAGKVAISAKEIKEDNIGAQVLGLFTLSTGQDSWNQTN | 48 | 123 | 15 | 16 |
| PRT-34 (protein) MANQEIRYSEVTPYHVTSVWTKGVTPPANFTQGEDVFHAPYVANQGWYDITKTFNGKDDLLCGAATAGNMLHWWFDQNKDQIKRYLEEHPEKQKINFNGEQMFDVKEAIDTKNSQLDSKLFEYFKEKAFPYLSTKHLGVFPDHVIDMFINGYRLSLTNHGPTPVKEGSKDPRGGIFDAVFTRGDQSKLLTSRHDFKEKNLKEISDLIKKELTEGKALGLSHTYANVRINHVINLWGADFDSNGNLKAIYVTDSDSNASIGMKKYFVGVNSAGKVAISAKEIKEDNIGAQVLGLFTLSTGQDSWNQTN | 37 | 95 | 10 | 14 |
| PRT-38 (protein) MANQEIRYSEVTPYHVTSVWTKGVTPPANFTQGEDVFHAPYVANQGWYDITKTFNGKDDLLCGAATAGNMLHWWFDQNKDQIKRYLEEHPEKQKINFNGEQMFDVKEAIDTKNHQLDSKLFEYFKEKAFPYLSTKHLGVFPDHVIDMFINGYRLSLTNHGPTPVKEGSKDPRGGIFDAVFTRGDQSKLLTSRHDFKEKNLKEISDLIKKELTEGKALGLSHTYANVRINHVINLWGADFDSNGNLEAIYVTDSDSNASIGMKKYFVGVNSAGKVAISAKEIKEDNIGAQVLGLFTLSTGQDSWNQTN | 46 | 124 | 14 | 15 |
| PRT-37 (protein) MANQEIRYSEVTPYHVTSVWTKGVTPPANFTQGEDVFHAPYVANQGWYDITKTFNGKDDLLCGAATAGNMLHWWFDQNKDQIKRYLEEHPEKQKINFNGEQMFDVKEAIDTKNHQLDSKLFEYFKEKAFPYLSTKHLGVFPDHVIDMFINGYRLSLTNHGPTPVKEGSKDPRGGIFDAVFTRGDQSKLLTSRHDFKEKTLKEISDLIKKELTEGKALGLSHTYANVRINHVINLWGADFDSNGNLKAIYVTDSDSNASIGMKKYFVGVNSAGKVAISAKEIKEDNIGAQVLGLFTLSTGQDSWNQTN | 4 | 79 | 23 | 69 |

Source: US20250027068
